From US8557971B2, “Chimeric viral envelopes” (Aarhus Universitet, priority 2006, dated 2013)

B1: SL3-2/apelin chimeric envelope peptide, "Apelin@155 RT" (other)
chain: VQHDSPHQVFNVTWRVTNLMTGQTANATSLLGTMTDAFPKLYFDLCDLIGDDWDETGLGCRTPGGRKRARIFDFYVCPGHTVLAGCGGPREGYCGKWGCETTGQAYWKPSSSWDLISLKRGNTQGIYQCSGGSGQRPRLSHKGPMPFSGGSGCGPCYDSSVVSSSAQGATPGGRCNPLVLEFTDAGKRASWDASKAWGLRLYRSTRTDPVTRFSLTRQVLNIGPRVPIGPNPVIIDQLPPSRPVQVMLPRPPQPPPPGAASTVPETAPPSQQPGTGDRLLNLVNGAYQALNLTSPDKTQECWLCLVAGPPYYEGVAVLGTYSNHTSAPANCSVASQHKLTLSEVTGQGLCVGAVPKTHQALCNTTQKTSNGSYYLAAPAGTIWACNTGLTPCLSTTVLDLTTDYCVLVELWPKVTYHSPGYVYGQFEEKTKYKREPVSLTLALLLGGLTMGGIAAGVGTGTTALVATQQFQQLQAAMQDDLKEVEKSITNLERSLTSLSEVVLQNRRGLDLLFLKEGGLCAALKEECCFYADHTGLVRDSMAKLRERLSQRQKLFESQQGWFEGLFNKSPWFTTLISTIMGPLIILLLILLFGPCILNHLVQFIKDRVSVVQALVLTQQYHQLKTIEDCESRE
B2: 155GI (protein)
chain: VQHDSPHQVFNVTWRVTNLMTGQTANATSLLGTMTDAFPKLYFDLCDLIGDDWDETGLGCRTPGGRKRARIFDFYVCPGHTVLAGCGGPREGYCGKWGCETTGQAYWKPSSSWDLISLKRGNTQGIYQCSGGSGQRPRLSHKGPMPFSGGSGCGPCYDSSVVSSSAQGATPGGRCNPLVLEFTDAGKRASWDASKAWGLRLYRSTGIDPVTRFSLTRQVLNIGPRVPIGPNPVIIDQLPPSRPVQVMLPRPPQPPPPGAASTVPETAPPSQQPGTGDRLLNLVNGAYQALNLTSPDKTQECWLCLVAGPPYYEGVAVLGTYSNHTSAPANCSVASQHKLTLSEVTGQGLCVGAVPKTHQALCNTTQKTSNGSYYLAAPAGTIWACNTGLTPCLSTTVLDLTTDYCVLVELWPKVTYHSPGYVYGQFEEKTKYKREPVSLTLALLLGGLTMGGIAAGVGTGTTALVATQQFQQLQAAMQDDLKEVEKSITNLERSLTSLSEVVLQNRRGLDLLFLKEGGLCAALKEECCFYADHTGLVRDSMAKLRERLSQRQKLFESQQGWFEGLFNKSPWFTTLISTIMGPLIILLLILLFGPCILNHLVQFIKDRVSVVQALVLTQQYHQLKTIEDCESRE
B3: SL3-2/apelin chimeric envelope peptide, "Apelin@155 GI" (other)
chain: VQHDSPHQVFNVTWRVTNLMTGQTANATSLLGTMTDAFPKLYFDLCDLIGDDWDETGLGCRTPGGRKRARIFDFYVCPGHTVLAGCGGPREGYCGKWGCETTGQAYWKPSSSWDLISLKRGNTQGIYQCSGGSGQRPRLSHKGPMPFSGGSGCGPCYDSSVVSSSAQGATPGGRCNPLVLEFTDAGKRASWDASKAWGLRLYRSTGIDPVTRFSLTRQVLNIGPRVPIGPNPVIIDQLPPSRPVQVMLPRPPQPPPPGAASTVPETAPPSQQPGTGDRLLNLVNGAYQALNLTSPDKTQECWLCLVAGPPYYEGVAVLGTYSNHTSAPANCSVASQHKLTLSEVTGQGLCVGAVPKTHQALCNTTQKTSNGSYYLAAPAGTIWACNTGLTPCLSTTVLDLTTDYCVLVELWPKVTYHSPGYVYGQFEEKTKYKREPVSLTLALLLGGLTMGGIAAGVGTGTTALVATQQFQQLQAAMQDDLKEVEKSITNLERSLTSLSEVVLQNRRGLDLLFLKEGGLCAALKEECCFYADHTGLVRDSMAKLRERLSQRQKLFESQQGWFEGLFNKSPWFTTLISTIMGPLIILLLILLFGPCILNHLVQFIKDRVSVVQALVLTQQYHQLKTIEDCESRE
B4: AP@155: SL3-2 envelope with apelin inserted at position 155 (variant not specified) (protein)
chain: VQHDSPHQVFNVTWRVTNLMTGQTANATSLLGTMTDAFPKLYFDLCDLIGDDWDETGLGCRTPGGRKRARIFDFYVCPGHTVLAGCGGPREGYCGKWGCETTGQAYWKPSSSWDLISLKRGNTQGIYQCSGGSGQRPRLSHKGPMPFSGGSGCGPCYDSSVVSSSAQGATPGGRCNPLVLEFTDAGKRASWDASKAWGLRLYRSTGIDPVTRFSLTRQVLNIGPRVPIGPNPVIIDQLPPSRPVQVMLPRPPQPPPPGAASTVPETAPPSQQPGTGDRLLNLVNGAYQALNLTSPDKTQECWLCLVAGPPYYEGVAVLGTYSNHTSAPANCSVASQHKLTLSEVTGQGLCVGAVPKTHQALCNTTQKTSNGSYYLAAPAGTIWACNTGLTPCLSTTVLDLTTDYCVLVELWPKVTYHSPGYVYGQFEEKTKYKREPVSLTLALLLGGLTMGGIAAGVGTGTTALVATQQFQQLQAAMQDDLKEVEKSITNLERSLTSLSEVVLQNRRGLDLLFLKEGGLCAALKEECCFYADHTGLVRDSMAKLRERLSQRQKLFESQQGWFEGLFNKSPWFTTLISTIMGPLIILLLILLFGPCILNHLVQFIKDRVSVVQALVLTQQYHQLKTIEDCESRE
B5: SL3-2/apelin chimeric envelope polypeptide 'AP165 RT' (other)
chain: VQHDSPHQVFNVTWRVTNLMTGQTANATSLLGTMTDAFPKLYFDLCDLIGDDWDETGLGCRTPGGRKRARIFDFYVCPGHTVLAGCGGPREGYCGKWGCETTGQAYWKPSSSWDLISLKRGNTPKGQGPCYDSSGGSGQRPRLSHKGPMPFSGGSGSSSAQGATPGGRCNPLVLEFTDAGKRASWDASKAWGLRLYRSTRTDPVTRFSLTRQVLNIGPRVPIGPNPVIIDQLPPSRPVQVMLPRPPQPPPPGAASTVPETAPPSQQPGTGDRLLNLVNGAYQALNLTSPDKTQECWLCLVAGPPYYEGVAVLGTYSNHTSAPANCSVASQHKLTLSEVTGQGLCVGAVPKTHQALCNTTQKTSNGSYYLAAPAGTIWACNTGLTPCLSTTVLDLTTDYCVLVELWPKVTYHSPGYVYGQFEEKTKYKREPVSLTLALLLGGLTMGGIAAGVGTGTTALVATQQFQQLQAAMQDDLKEVEKSITNLERSLTSLSEVVLQNRRGLDLLFLKEGGLCAALKEECCFYADHTGLVRDSMAKLRERLSQRQKLFESQQGWFEGLFNKSPWFTTLISTIMGPLIILLLILLFGPCILNHLVQFIKDRVSVVQALVLTQQYHQLKTIEDCESRE
B6: SL3-2/apelin chimeric envelope AP@165 GI (other)
chain: VQHDSPHQVFNVTWRVTNLMTGQTANATSLLGTMTDAFPKLYFDLCDLIGDDWDETGLGCRTPGGRKRARIFDFYVCPGHTVLAGCGGPREGYCGKWGCETTGQAYWKPSSSWDLISLKRGNTPKGQGPCYDSSGGSGQRPRLSHKGPMPFSGGSGSSSAQGATPGGRCNPLVLEFTDAGKRASWDASKAWGLRLYRSTGIDPVTRFSLTRQVLNIGPRVPIGPNPVIIDQLPPSRPVQVMLPRPPQPPPPGAASTVPETAPPSQQPGTGDRLLNLVNGAYQALNLTSPDKTQECWLCLVAGPPYYEGVAVLGTYSNHTSAPANCSVASQHKLTLSEVTGQGLCVGAVPKTHQALCNTTQKTSNGSYYLAAPAGTIWACNTGLTPCLSTTVLDLTTDYCVLVELWPKVTYHSPGYVYGQFEEKTKYKREPVSLTLALLLGGLTMGGIAAGVGTGTTALVATQQFQQLQAAMQDDLKEVEKSITNLERSLTSLSEVVLQNRRGLDLLFLKEGGLCAALKEECCFYADHTGLVRDSMAKLRERLSQRQKLFESQQGWFEGLFNKSPWFTTLISTIMGPLIILLLILLFGPCILNHLVQFIKDRVSVVQALVLTQQYHQLKTIEDCESRE

Columns and labels:
APJ = APJ (Homo sapiens (Human), UniProt P35414); assay: cell-based or functional assay
[1] = target: polytropic Xpr1 receptor on NIH3T3 murine cells (murine, UniProt Q9Z0U0); assay: cell-based or functional assay
D17 APJ = assay: Titer on D17 cells expressing APJ; type: cell-based, dog; conditions: for Titer, D17 APJ: Titer Experiment 1, D17 cells expressing APJ
Description: (§1) Transfections were done by calcium phosphate precipitation method, described by Graham and van der Eb (Graham and van der Eb, 1973) leaving the calcium precipitate on the cells for 24 hours. 293T cells were transfected using 8 μg of envelope expression plasmid, 2 μg gagpol expression plasmid (Morita et al., 2000) and 1 μg of an EGFP expressing plasmid. EGFP was included as a visual aid to determine the success of transfections. Medium on the transfected cells was renewed every day until it was used for transduction, usually between 48 and 72 hours after transfection, depending on the number of green fluorescing cells.
(§2) The day before transduction, medium was changed from fetal calf serum to newborn calf serum containing medium. Semi-packaging cells (Bahrami et al., 2003) were seeded at concentration of 10^4 cells/cm^2 24 hours before transduction.
(§3) Supernatant from transfected cells was filtered (0.22μ). The supernatant with 6 μg/mL polybrene was added to the target cells. 24 hours later, the infected cells were selected using medium described before containing 600 μg/mL G418 for 10 days.
The ability of redirecting the retroviral fusion machinery to a desired receptor would have wide biotechnological and potentially also nanotechnological applications. However, the regulatory mechanisms that interconnect receptor binding with fusion are poorly understood, which has made intelligent engineering of the envelope protein difficult. […] Using the envelope protein of the SL3-2 murine leukemia virus isolate (Pedersen et al., 1981) as a backbone and insertion of the 13 amino acid peptide ligand apelin by structure based design, we achieved efficient membrane fusion in a manner dependent upon APJ, the receptor for apelin (Fan et al., 2003; Kawamata et al., 2001) (FIG. 12). APJ belongs to the large family of G-protein-coupled receptors (GPCRs) involved in cell signaling with more than 1000 members in man (Puffer et al., 2000). All GPCRs are characterized by having 7 transmembrane helices (7-TM). Some of the receptors respond to peptide ligands such as apelin. […]

NIH 3T3 = assay: Titer (transduction) of chimeric envelope constructs on NIH 3T3 cells; type: cell-based, mouse; conditions: Titer Experiment 1; NIH 3T3 mouse cells
Description: as §1, §2, §3

D17 = assay: Titer on D17 dog cells; type: cell-based; conditions: Titer Experiment 1; D17 dog cells
Description: as §1, §2, §3

NIH 3T3 MCF 247 = assay: Titer on NIH 3T3 cells infected with MCF 247 (blocked polytropic receptor); type: cell-based, mouse; conditions: Titer Experiment 1; NIH 3T3 infected with MCF 247
Description: FIG. 24. The SL3-2 chimeric envelopes can use two different receptors. […] NIH3T3: Murine cells, NIH3T3+MCF247: murine cells infected with MCF247, thus having a blocked polytropic receptor, D17: Dog cells, D17-APJ: Dog cells expressing APJ, D17-APJ-6 uM Apelin 13: Dog cells expressing APJ incubated with 6 uM apelin-13 peptide for 1 h.
as §1, §2
Supernatant from transfected cells was filtered (0.22μ). The supernatant with 6 μg/mL polybrene was added to the target cells. […]

Molecule	Titer on D17 APJ (Titer Experiment 1; unit not given) (APJ)	Titer on NIH 3T3 (Titer Experiment 1; unit not given) [1]	Titer, D17 APJ (D17 APJ)	Titer, NIH 3T3 (NIH 3T3)	Titer, D17 (D17)	Titer, NIH 3T3 MCF 247 (NIH 3T3 MCF 247)	APJ-dependent entry / membrane fusion into D17 dog cells (D17 APJ; qualitative, FIG. 12)
B1	1750	500000	–	–	–	–	–
B2	–	–	4 × 10^2	7.5 × 10^5	2.5	0.25 × 10^1	–
B3	400	750000	–	–	–	–	–
B4	–	–	–	–	–	–	suboptimal relative to AP@165
B5	2.5e+06	3e+06	–	–	–	–	–
B6	1.25e+06	4e+06	1.25 × 10^6	4 × 10^6	1.25 × 10^1	0	–
